PMC9352680, “A comprehensive thermodynamic model for RNA binding by the Saccharomyces cerevisiae Pumilio protein PUF4”

Target: T1, PUF4 RNA-binding domain (Saccharomyces cerevisiae, UniProt P25339 537-888)
T1 sequence: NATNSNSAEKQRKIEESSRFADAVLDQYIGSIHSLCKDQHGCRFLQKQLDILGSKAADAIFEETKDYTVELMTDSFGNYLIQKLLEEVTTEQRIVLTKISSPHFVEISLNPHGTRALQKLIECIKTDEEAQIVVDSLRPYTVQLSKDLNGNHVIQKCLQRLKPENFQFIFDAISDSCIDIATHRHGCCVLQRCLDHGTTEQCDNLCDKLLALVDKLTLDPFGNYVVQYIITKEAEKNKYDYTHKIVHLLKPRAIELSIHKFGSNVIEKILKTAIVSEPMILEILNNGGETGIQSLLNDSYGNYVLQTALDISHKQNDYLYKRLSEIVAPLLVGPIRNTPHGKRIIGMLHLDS
Assay: Mg; RNA-MaP; 20 mM Na-HEPES pH 7.4, 30 mM KOAc, 0.75 mM MgCl2, 0.1% Tween-20, 5% glycerol, 0.1 mg/mL BSA, 2 mM DTT; 25 C; 0.0125-409.6 nM protein
Settings: tags: N-His6-TEV cleaved; C-SNAP kept, Cy3B-labelled; label: tethered on chip by stalled RNA polymerase

Binder	Kd
Ie_S2_P5E.1_K5.1_C5.1_H5.1_A5.1_[+7CCCT]_F5.1_T5.1 (ssRNA) RNA: UUUGAUUAAUAUGAUAUCGUUCUUUCUUGUAUUACCCUUUAUUCUUUCUCGAUAUCAUAUUAAUCUUU	74 nM
Ie_S2_P5E.1_K5.1_C5.1_H5.1_A5.1_F5.1_[+8TTCC]_T5.1 (ssRNA) RNA: UUUGAUUAAUAUGAUAUCGUUCUUUCUUGUAUUAUUUCCUAUUCUUUCUCGAUAUCAUAUUAAUCUUU	9.45 nM
Ie_S2_P5E.1_K5.1_C5.1_H5.1_A5.1_F5.1_[+9TCTC]_T5.1 (ssRNA) RNA: UUUGAUUAAUAUGAUAUCGUUCUUUCUUGUAUUAUUUCUCAUUCUUUCUCGAUAUCAUAUUAAUCUUU	10.2 nM
Ie_S2_P5E.1_K5.1_C5.1_H5.1_A5.1_F5.1_[+9CCTC]_T5.1 (ssRNA) RNA: UUUGAUUAAUAUGAUAUCGUUCUUUCUUGUAUUAUUCCUCAUUCUUUCUCGAUAUCAUAUUAAUCUUU	16.4 nM
Ie_S2_P5E.1_K5.1_C5.1_H5.1_A5.1_F5.1_[+9TTCC]_T5.1 (ssRNA) RNA: UUUGAUUAAUAUGAUAUCGUUCUUUCUUGUAUUAUUUUCCAUUCUUUCUCGAUAUCAUAUUAAUCUUU	13.2 nM
Ie_S2_P5E.1_K5.1_C5.1_H5.1_A5.1_F5.1_[+10TTCC]_T5.1 (ssRNA) RNA: UUUGAUUAAUAUGAUAUCGUUCUUUCUUGUAUUAUUAUUCCUUCUUUCUCGAUAUCAUAUUAAUCUUU	2.02 nM
Ie_S2_P5E.1_K5.1_C5.1_H5.1_A5.1_F5.1_[+8CCTC]_T5.1 (ssRNA) RNA: UUUGAUUAAUAUGAUAUCGUUCUUUCUUGUAUUAUCCUCUAUUCUUUCUCGAUAUCAUAUUAAUCUUU	15.8 nM
Ie_S2_P5E.1_K5.1_C5.1_H5.1_A5.1_F5.1_[+9CCCT]_T5.1 (ssRNA) RNA: UUUGAUUAAUAUGAUAUCGUUCUUUCUUGUAUUAUUCCCUAUUCUUUCUCGAUAUCAUAUUAAUCUUU	8.29 nM
Ie_S2_P5E.1_K5.1_C5.1_H5.1_A5.1_F5.1_[+8CCCT]_T5.1 (ssRNA) RNA: UUUGAUUAAUAUGAUAUCGUUCUUUCUUGUAUUAUCCCUUAUUCUUUCUCGAUAUCAUAUUAAUCUUU	11.6 nM
Ie_S2_P5E.1_K5.1_C5.1_H5.1_A5.1_F5.1_[+8CCC]_T5.1 (ssRNA) RNA: UUUGAUUAAUAUGAUAUCGUUCUUUCUUGUAUUAUCCCUAUUCUUUCUCGAUAUCAUAUUAAUCUUU	12.8 nM
Ie_S2_P5E.1_K5.1_C5.1_H5.1_A5.1_F5.1_[+8TTC]_T5.1 (ssRNA) RNA: UUUGAUUAAUAUGAUAUCGUUCUUUCUUGUAUUAUUUCUAUUCUUUCUCGAUAUCAUAUUAAUCUUU	7.64 nM
Ie_S2_P5E.1_K5.1_C5.1_H5.1_A5.1_F5.1_[+10TTC]_T5.1 (ssRNA) RNA: UUUGAUUAAUAUGAUAUCGUUCUUUCUUGUAUUAUUAUUCUUCUUUCUCGAUAUCAUAUUAAUCUUU	2.01 nM
Ie_S2_P5E.1_K5.1_C5.1_H5.1_A5.1_F5.1_[+9CCT]_T5.1 (ssRNA) RNA: UUUGAUUAAUAUGAUAUCGUUCUUUCUUGUAUUAUUCCUAUUCUUUCUCGAUAUCAUAUUAAUCUUU	7.29 nM
Ie_S2_P5E.1_K5.1_C5.1_H5.1_A5.1_F5.1_[+9TCC]_T5.1 (ssRNA) RNA: UUUGAUUAAUAUGAUAUCGUUCUUUCUUGUAUUAUUUCCAUUCUUUCUCGAUAUCAUAUUAAUCUUU	15.6 nM
Ie_S2_P5E.1_K5.1_C5.1_H5.1_A5.1_F5.1_[+9CTC]_T5.1 (ssRNA) RNA: UUUGAUUAAUAUGAUAUCGUUCUUUCUUGUAUUAUUCUCAUUCUUUCUCGAUAUCAUAUUAAUCUUU	22.6 nM
Ie_S2_P5E.1_K5.1_C5.1_H5.1_A5.1_F5.1_[+9TTC]_T5.1 (ssRNA) RNA: UUUGAUUAAUAUGAUAUCGUUCUUUCUUGUAUUAUUUUCAUUCUUUCUCGAUAUCAUAUUAAUCUUU	14.1 nM
Ie_S2_P5E.1_K5.1_C5.1_H5.1_A5.1_F5.1_[+10TCT]_T5.1 (ssRNA) RNA: UUUGAUUAAUAUGAUAUCGUUCUUUCUUGUAUUAUUAUCUUUCUUUCUCGAUAUCAUAUUAAUCUUU	3.7 nM
Ie_S2_P5E.1_K5.1_C5.1_H5.1_A5.1_F5.1_[+10TTT]_T5.1 (ssRNA) RNA: UUUGAUUAAUAUGAUAUCGUUCUUUCUUGUAUUAUUAUUUUUCUUUCUCGAUAUCAUAUUAAUCUUU	1.17 nM
ACAAACCUUUCGUAUAUAUAACAAAC (ssRNA) [Ie_S3_P3E.2_K3.1_C3.2_H3.1_[+1TC]_A3.1_F3.1_T3.2]	927 nM
Ie_S2_P5E.1_K5.1_C5.1_H5.1_A5.1_F5.1_[+8TC]_T5.1 (ssRNA) RNA: UUUGAUUAAUAUGAUAUCGUUCUUUCUUGUAUUAUUCUAUUCUUUCUCGAUAUCAUAUUAAUCUUU	10.3 nM
Ie_S2_P5E.1_K5.1_C5.1_H5.1_A5.1_F5.1_[+10TT]_T5.1 (ssRNA) RNA: UUUGAUUAAUAUGAUAUCGUUCUUUCUUGUAUUAUUAUUUUCUUUCUCGAUAUCAUAUUAAUCUUU	2.29 nM

Binder	Kd
Ie_S2_P5E.1_K5.1_C5.1_H5.1_A5.1_[+7CTCTC]_F5.1_T5.1 (ssRNA) RNA: UUUGAUUAAUAUGAUAUCGUUCUUUCUUGUAUUACUCUCUUAUUCUUUCUCGAUAUCAUAUUAAUCUUU	47.3 nM
Ie_S2_P5E.1_K5.1_C5.1_H5.1_A5.1_F5.1_[+8CCCTT]_T5.1 (ssRNA) RNA: UUUGAUUAAUAUGAUAUCGUUCUUUCUUGUAUUAUCCCUUUAUUCUUUCUCGAUAUCAUAUUAAUCUUU	15.2 nM
Ie_S2_P5E.1_K5.1_C5.1_H5.1_A5.1_F5.1_[+8CTCTC]_T5.1 (ssRNA) RNA: UUUGAUUAAUAUGAUAUCGUUCUUUCUUGUAUUAUCUCUCUAUUCUUUCUCGAUAUCAUAUUAAUCUUU	13.1 nM
Ie_S2_P5E.1_K5.1_C5.1_H5.1_A5.1_F5.1_[+9TTCCT]_T5.1 (ssRNA) RNA: UUUGAUUAAUAUGAUAUCGUUCUUUCUUGUAUUAUUUUCCUAUUCUUUCUCGAUAUCAUAUUAAUCUUU	7.79 nM
Ie_S2_P5E.1_K5.1_C5.1_H5.1_A5.1_F5.1_[+9CTCTC]_T5.1 (ssRNA) RNA: UUUGAUUAAUAUGAUAUCGUUCUUUCUUGUAUUAUUCUCUCAUUCUUUCUCGAUAUCAUAUUAAUCUUU	13.7 nM
Ie_S2_P5E.1_K5.1_C5.1_H5.1_A5.1_[+7TCTCT]_F5.1_T5.1 (ssRNA) RNA: UUUGAUUAAUAUGAUAUCGUUCUUUCUUGUAUUAUCUCUUUAUUCUUUCUCGAUAUCAUAUUAAUCUUU	17.2 nM
Ie_S2_P5E.1_K5.1_C5.1_H5.1_A5.1_F5.1_[+9CCTCT]_T5.1 (ssRNA) RNA: UUUGAUUAAUAUGAUAUCGUUCUUUCUUGUAUUAUUCCUCUAUUCUUUCUCGAUAUCAUAUUAAUCUUU	7.72 nM
Ie_S2_P5E.1_K5.1_C5.1_H5.1_A5.1_F5.1_[+9CCCTT]_T5.1 (ssRNA) RNA: UUUGAUUAAUAUGAUAUCGUUCUUUCUUGUAUUAUUCCCUUAUUCUUUCUCGAUAUCAUAUUAAUCUUU	12.8 nM
Ie_S2_P5E.1_K5.1_C5.1_H5.1_A5.1_F5.1_[+10TTCCT]_T5.1 (ssRNA) RNA: UUUGAUUAAUAUGAUAUCGUUCUUUCUUGUAUUAUUAUUCCUUUCUUUCUCGAUAUCAUAUUAAUCUUU	1.84 nM
Ie_S2_P5E.1_K5.1_C5.1_H5.1_A5.1_F5.1_[+10TCTCT]_T5.1 (ssRNA) RNA: UUUGAUUAAUAUGAUAUCGUUCUUUCUUGUAUUAUUAUCUCUUUCUUUCUCGAUAUCAUAUUAAUCUUU	2.21 nM
Ie_S2_P5E.1_K5.1_C5.1_H5.1_A5.1_[+7CCTCT]_F5.1_T5.1 (ssRNA) RNA: UUUGAUUAAUAUGAUAUCGUUCUUUCUUGUAUUACCUCUUUAUUCUUUCUCGAUAUCAUAUUAAUCUUU	57.6 nM
Ie_S2_P5E.1_K5.1_C5.1_H5.1_A5.1_[+7TTCCT]_F5.1_T5.1 (ssRNA) RNA: UUUGAUUAAUAUGAUAUCGUUCUUUCUUGUAUUAUUCCUUUAUUCUUUCUCGAUAUCAUAUUAAUCUUU	7.84 nM
Ie_S2_P5E.1_K5.1_C5.1_H5.1_A5.1_F5.1_[+9TCTCT]_T5.1 (ssRNA) RNA: UUUGAUUAAUAUGAUAUCGUUCUUUCUUGUAUUAUUUCUCUAUUCUUUCUCGAUAUCAUAUUAAUCUUU	6.98 nM
ACAAACCUUCCUCGUAUAUAUAACAAAC (ssRNA) [Ie_S3_P3E.2_K3.1_C3.2_H3.1_[+1CCTC]_A3.1_F3.1_T3.2]	565 nM
Ie_S2_P5E.1_K5.1_C5.1_H5.1_A5.1_F5.1_[+8C]_T5.1 (ssRNA) RNA: UUUGAUUAAUAUGAUAUCGUUCUUUCUUGUAUUAUCUAUUCUUUCUCGAUAUCAUAUUAAUCUUU	11.6 nM
Ie_S2_P5E.1_K5.1_C5.1_H5.1_A5.1_F5.1_[+10T]_T5.1 (ssRNA) RNA: UUUGAUUAAUAUGAUAUCGUUCUUUCUUGUAUUAUUAUUUCUUUCUCGAUAUCAUAUUAAUCUUU	1.76 nM
Ic_S2_P3E.1_K3.1_C3.1_H3.1_A3.1_[T5C]_F3.1_T3.1 (ssRNA) RNA: UUUGAUUAAUAUGAUAUCGUUCUUUCUUGUACAUAUUCUUUCUCGAUAUCAUAUUAAUCUUU	1.76 nM
Ib_S2_P3E.1_K3.1_C3.1_H3.1_[G2A]_[A4T]_A3.1_F3.1_T3.1 (ssRNA) RNA: UUUGAUUAAUAUGAUAUCGUUCUUUCUUAUUUAUAUUCUUUCUCGAUAUCAUAUUAAUCUUU	> 2300 nM
Ib_S2_P3E.1_K3.1_C3.1_H3.1_[G2T]_[A4T]_A3.1_F3.1_T3.1 (ssRNA) RNA: UUUGAUUAAUAUGAUAUCGUUCUUUCUUUUUUAUAUUCUUUCUCGAUAUCAUAUUAAUCUUU	> 2300 nM
Ib_S2_P3E.1_K3.1_C3.1_H3.1_[G2C]_[A4C]_A3.1_F3.1_T3.1 (ssRNA) RNA: UUUGAUUAAUAUGAUAUCGUUCUUUCUUCUCUAUAUUCUUUCUCGAUAUCAUAUUAAUCUUU	2150 nM
Ib_S2_P3E.1_K3.1_C3.1_H3.1_[G2C]_[A4T]_A3.1_F3.1_T3.1 (ssRNA) RNA: UUUGAUUAAUAUGAUAUCGUUCUUUCUUCUUUAUAUUCUUUCUCGAUAUCAUAUUAAUCUUU	1670 nM
